Measured values from publication PMC3236591, “Central domain deletions affect the SAXS solution structure and function of Yeast Hsp40 proteins Sis1 and Ydj1” (BMC Structural Biology, 2011).

B1: Sis1_Δ124-174 (natural protein, yeast, UniProt P25294 1-352, looked up)
chain: MVKETKLYDLLGVSPSANEQELKKGYRKAALKYHPDKPTGDTEKFKEISEAFEILNDPQKREIYDQYGLEAARSGGPSFGPGGPGGAGGAGGFPGGAGGFSGGHAFSNEDAFNIFSQFFGGSSTYPEEETVQVNLPVSLEDLFVGKKKSFKIGRKGPHGASEKTQIDIQLKPGWKAGTKITYKNQGDYNPQTGRRKTLQFVIQEKSHPNFKRDGDDLIYTLPLSFKESLLGFSKTIQTIDGRTLPLSRVQPVQPSQTSTYPGQGMPTPKNPSQRGNLIVKYKVDYPISLNDAQKRAIDENF
notes: Sis1, yeast Type II Hsp40 (352 residues), residues 124 to 174 (G/M region) deleted; also called Sis1 G/M deletion mutant; source: E. coli BL21(DE3)pLys, purified (Macro-prep High S cation exchange, hydroxyapatite)
B2: Sis1_Δ121-257 (natural protein, yeast, UniProt P25294 1-352, looked up)
chain: MVKETKLYDLLGVSPSANEQELKKGYRKAALKYHPDKPTGDTEKFKEISEAFEILNDPQKREIYDQYGLEAARSGGPSFGPGGPGGAGGAGGFPGGAGGFSGGHAFSNEDAFNIFSQFFGHPNFKRDGDDLIYTLPLSFKESLLGFSKTIQTIDGRTLPLSRVQPVQPSQTSTYPGQGMPTPKNPSQRGNLIVKYKVDYPISLNDAQKRAIDENF
notes: Sis1, yeast Type II Hsp40 (352 residues), residues 121 to 257 (G/M and CTDI) deleted; also called Sis1 G/M plus CTDI deletion mutant; source: E. coli BL21(DE3)pLys, purified (Macro-prep High S cation exchange, hydroxyapatite)
B3: Sis1 (natural protein, yeast, UniProt P25294 1-352, looked up)
chain: MVKETKLYDLLGVSPSANEQELKKGYRKAALKYHPDKPTGDTEKFKEISEAFEILNDPQKREIYDQYGLEAARSGGPSFGPGGPGGAGGAGGFPGGAGGFSGGHAFSNEDAFNIFSQFFGGSSPFGGADDSGFSFSSYPSGGGAGMGGMPGGMGGMHGGMGGMPGGFRSASSSPTYPEEETVQVNLPVSLEDLFVGKKKSFKIGRKGPHGASEKTQIDIQLKPGWKAGTKITYKNQGDYNPQTGRRKTLQFVIQEKSHPNFKRDGDDLIYTLPLSFKESLLGFSKTIQTIDGRTLPLSRVQPVQPSQTSTYPGQGMPTPKNPSQRGNLIVKYKVDYPISLNDAQKRAIDENF
notes: Sis1, yeast Type II Hsp40, 352 residues (J-domain, G/F, G/M, CTDI, CTDII); also called Type II Hsp40; full length Sis1 protein; source: recombinant, purified (Macro-prep High S cation exchange, hydroxyapatite)
B4: Ydj1_Δ106-255 (natural protein)
chain: not shown
notes: Ydj1, yeast Type I Hsp40 (409 residues), residues 106 to 255 (ZFLR and CTDI) deleted; also called Ydj1 ZFLR plus CTDI deletion mutant; source: E. coli BL21(DE3), purified (Macro-prep High Q anion exchange, hydroxyapatite, Superdex 200 SEC)

Molecular target: the molecule itself
Test: SAXS; 2.75 to 7.1 mg/mL protein in 25 mM Tris-HCl pH 7.5, 500 mM NaCl; molecular mass from I(0) against a BSA standard

Binder	stoichiometry N
B1	2
B2	2
B3	2
B4	2

What follows are binders tested against T1, heated luciferase (UniProt P08659 1-550 = luciferase) (assay: not stated; binding of Hsp40s to heated denatured luciferase as previously described (refs 15, 21); Sis1 binding set as standard (100%)).
T1 construct: luciferase, heat-denatured, used as client protein; Heat-denatured in the assay; Firefly luciferase is surmised; also called heated denaturated luciferase; denatured luciferase
T1 sequence (P08659 whole entry): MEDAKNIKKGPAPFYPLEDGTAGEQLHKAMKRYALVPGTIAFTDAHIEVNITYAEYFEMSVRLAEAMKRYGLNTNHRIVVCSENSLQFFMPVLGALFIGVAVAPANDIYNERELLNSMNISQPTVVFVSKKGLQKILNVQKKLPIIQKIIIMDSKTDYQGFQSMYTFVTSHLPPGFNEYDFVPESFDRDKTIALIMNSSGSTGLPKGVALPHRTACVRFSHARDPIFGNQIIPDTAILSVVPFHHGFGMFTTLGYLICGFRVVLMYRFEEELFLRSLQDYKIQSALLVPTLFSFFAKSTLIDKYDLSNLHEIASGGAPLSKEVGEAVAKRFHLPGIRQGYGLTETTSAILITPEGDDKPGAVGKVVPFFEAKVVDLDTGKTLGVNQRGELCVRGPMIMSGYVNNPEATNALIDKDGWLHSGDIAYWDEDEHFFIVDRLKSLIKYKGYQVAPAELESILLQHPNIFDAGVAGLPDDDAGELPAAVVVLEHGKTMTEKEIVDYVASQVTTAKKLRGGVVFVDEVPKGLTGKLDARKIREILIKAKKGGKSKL

Binder	percent of Sis1 binding to heated luciferase [%]
B1	~60
B2	~40
B4	~40
